Publication PMC1361355

Columns and labels:
ephrinB2 (Homo sapiens) = ephrinB2 (Homo sapiens) (UniProt P52799); details: cited from earlier work
[1] = target: human ephrinB2 stably expressed on CHO-pgsA745 cells (CHO-B2) (human) (UniProt P52799); assay: flow cytometry on cells

ephrinB2 (Homo sapiens), sequence (P52799 28-229): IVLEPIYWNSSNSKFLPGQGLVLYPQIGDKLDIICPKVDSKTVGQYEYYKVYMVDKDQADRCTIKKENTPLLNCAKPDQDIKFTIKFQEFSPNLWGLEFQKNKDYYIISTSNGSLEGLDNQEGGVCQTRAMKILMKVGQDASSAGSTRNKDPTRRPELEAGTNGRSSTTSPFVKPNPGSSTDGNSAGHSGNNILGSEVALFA
EphB4, sequence (P54760 16-539): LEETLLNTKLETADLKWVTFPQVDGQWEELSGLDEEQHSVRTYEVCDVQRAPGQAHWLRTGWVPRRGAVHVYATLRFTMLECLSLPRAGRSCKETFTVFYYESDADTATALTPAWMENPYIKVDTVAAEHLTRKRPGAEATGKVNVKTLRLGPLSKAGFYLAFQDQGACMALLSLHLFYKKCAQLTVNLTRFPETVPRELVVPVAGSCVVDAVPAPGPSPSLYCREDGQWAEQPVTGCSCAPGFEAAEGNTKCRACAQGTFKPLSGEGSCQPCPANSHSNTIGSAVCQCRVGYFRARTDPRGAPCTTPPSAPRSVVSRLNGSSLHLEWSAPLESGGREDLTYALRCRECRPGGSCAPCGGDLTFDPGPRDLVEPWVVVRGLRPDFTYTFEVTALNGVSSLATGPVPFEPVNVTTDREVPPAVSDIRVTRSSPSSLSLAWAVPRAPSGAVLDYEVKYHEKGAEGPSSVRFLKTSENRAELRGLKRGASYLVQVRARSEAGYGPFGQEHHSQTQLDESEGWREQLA

Substance: EphB4 (from UniProt P54760)
- Kd (ephrinB2 (Homo sapiens)): 500 pM

Substance: NiV-G-Fc, a fusion construct between the ectodomain of NiV-G and the Fc region of human IgG1 (from UniProt Q9IH62 71-602) (Fc fusion)
- Kd [1]: 60 pM
